Measured values as given in patent US20160159919A1 (Chugai, published 2016).

These binders were tested against T1, soluble human EREG fragment having a mature EGF domain structure (R&D Systems cat. no. 1195-EP/CF) (human, UniProt O14944 63-108) (assay: competitive ELISA on coated soluble human EREG fragment).
T1 construct: bought; coated on ELISA plates; also called human epiregulin; recombinant human Epiregulin
Experimental: The soluble human EREG fragment having a mature EGF domain structure (the polypeptide of SEQ ID NO: 34 which corresponds to ⁶³Val to ¹⁰⁸Leu) was purchased from R&D Systems (cat. no. 1195-EP/CF). The soluble human EREG fragment was used to coat nunc immunoplates, and after blocking with a BSA-containing solution, the competitive binding reactivity between mouse hybridoma-derived EP27 and the purified humanized anti-EREG antibody was analyzed. Mouse hybridoma-derived EP27 and a purified humanized anti-EREG antibody were added to the plates, and after two hours of incubation, the plates were washed; and an alkaline phosphatase-labeled anti-human IgG antibody (Zymed) was added to each well of the plates and then allowed to react. Each well was washed, and then the amount of bound antibody (A405/655 detection value) was determined by addition of a test reagent, Sigma p-Nitrophenyl phosphate Tablets.

T1 sequence (O14944 63-108 limits assumed): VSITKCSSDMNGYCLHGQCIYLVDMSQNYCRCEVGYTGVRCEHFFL

Binder | binding result
HY-G1d/L30-k (antibody, human IgG1, kappa, V domains shown, the text names only HY-G1d/L32-k as obtained; also called HY-G1/L30-k) VH: QDQLVQSGAEVKKPGASVKVSCKASGFNIKDTYIQWVRQAPGQGLEWMGRIDPLNGNTKYVPKFQGRVTITADTSTNTAYMELSSLRSEDTAVYYCVRSGTLFDFWGQGTLVTVSS VL: DIQMTQSPSSLSASVGDRVTITCKASQDIHKYIAWYQQKPGQAPRLLIQYTSTLQPGVPSRFSGSGSGTDYTFTISSLQPEDIATYYCLQYENLRTFGGGTKVEIKR | binds
H87-G1d/L21-k (antibody, human IgG1, kappa, V domains shown) VH: QDQLVQSGAEVKKPGASVKVSCKASGFNIKDTYIQWVRQAPGQGLEWMGRIDPLTGQTKYQEKFEGRVTITADTSTNTAYMELSSLRSEDTAVYYCVRSGTSFDFWGQGTLVTVSS VL: DIQMTQSPSSLSASVGDRVTITCQASQDIHKYIAWYQQKPGQAPRLLIQYTSTLQPGVPSRFSGSGSGTDYTFTISSLQPEDIATYYCLQYDNLRTFGGGTKVEIER | binds
HY-G1d/L32-k (antibody, human IgG1, kappa, V domains shown, also called HY-G1/L32-k) VH: QDQLVQSGAEVKKPGASVKVSCKASGFNIKDTYIQWVRQAPGQGLEWMGRIDPLNGNTKYVPKFQGRVTITADTSTNTAYMELSSLRSEDTAVYYCVRSGTLFDFWGQGTLVTVSS VL: DIQMTQSPSSLSASVGDRVTITCKASQDIHKYIAWYQQKPGQAPRLLIQYTSTLQPGVPSRFSGSGSGTDYTFTISSLQPEDIATYYCLQYEQLRTFGGGTKVEIKR | binds
HY-G1d/L2-k (antibody, human IgG1, kappa, V domains shown) VH: QDQLVQSGAEVKKPGASVKVSCKASGFNIKDTYIQWVRQAPGQGLEWMGRIDPLNGNTKYVPKFQGRVTITADTSTNTAYMELSSLRSEDTAVYYCVRSGTLFDFWGQGTLVTVSS VL: DIQMTQSPSSLSASVGDRVTITCSASQDIHKYIAWYQQKPGQAPRLLIQYTSTLQPGVPSRFSGSGSGTDYTFTISSLQPEDIATYYCLQYDNLRTFGGGTKVEIKR | binds
H71-G1d/LB-k (antibody, human IgG1, kappa, V domains shown, also called H71-G1/LB-k) VH: QDQLVQSGAEVKKPGASVKVSCKASGFNIKATYIQWVRQAPGQGLEWMGRIDPLNGNTKYVPKFQGRVTITADTSTNTAYMELSSLRSEDTAVYYCVRSGTLFDFWGQGTLVTVSS VL: DIQMTQSPSSLSASVGDRVTITCKASQDIHKYIAWYQQKPGQAPRLLIQYTSTLQPGVPSRFSGSGSGTDYTFTISSLQPEDIATYYCLQYDNLRTFGGGTKVEIKR | binds

Further lines, results first:

binding result | Binder
binds | H87-G1d/L37-k (antibody, human IgG1, kappa, V domains shown) VH: QDQLVQSGAEVKKPGASVKVSCKASGFNIKDTYIQWVRQAPGQGLEWMGRIDPLTGQTKYQEKFEGRVTITADTSTNTAYMELSSLRSEDTAVYYCVRSGTSFDFWGQGTLVTVSS VL: DIQMTQSPSSLSASVGDRVTITCQASQDIHKYIAWYQQKPGQAPRLLIQYTSTLQPGVPSRFSGSGSGTDYTLTISSLQPEDFATYYCLQYDNLRTFGGGTKVEIKR
binds | HY-G1d/L12-k (antibody, human IgG1, kappa, V domains shown) VH: QDQLVQSGAEVKKPGASVKVSCKASGFNIKDTYIQWVRQAPGQGLEWMGRIDPLNGNTKYVPKFQGRVTITADTSTNTAYMELSSLRSEDTAVYYCVRSGTLFDFWGQGTLVTVSS VL: DIQMTQSPSSLSASVGDRVTITCKASQDIHKYIAWYQQKPGQAPRLLIQYTSTLEPGVPSRFSGSGSGTDYTFTISSLQPEDIATYYCLQYDNLRTFGGGTKVEIKR

What follows are binders tested against T2, cynomolgus EREG (Biacore analyte) (cynomolgus monkey, UniProt O14944 63-108 (human entry), limits assumed) (assay: SPR (Biacore T100), antibody captured on Protein A, EREG as analyte; KD for monkey EREG over KD for human EREG).
T2 construct: also called cynomolgus monkey EREG; cEREG
Experimental: The affinity and association rate constant of an anti-EREG antibody for an antigen were measured by the single-cycle kinetics method of surface plasmon resonance assay using Biacore™-T100 (GE Healthcare Japan). HBS-EP+ (GE Healthcare Japan) was used for the running buffer, and an amine coupling kit (GE Healthcare Japan) was used to covalently bond Protein A to the CM5 chip (carboxymethyl dextran-coated chip). Each anti-EREG antibody was prepared so that approximately 350 RU will be captured by Protein A. Human EREG or cynomolgus EREG used as the analyte was prepared at 0, 0.7, 1.4, 2.8, 5.6, and 11.2 nM using HBS-EP+. Measurement was carried out by first allowing Protein A to capture the antibody solution, and then at a flow rate of 30 μL/min, successively injecting each of the 0, 0.7, 1.4, 2.8, 5.6, and 11.2 nM human EREG or cynomolgus EREG solutions for three minutes to allow reaction to take place. Then, the solution was switched to HBS-EP+, and the dissociation phase was measured for 15 minutes. After completion of the dissociation phase measurement, the sensor chip was washed with 25 mM NaOH and regenerated. The measurement at zero concentration was similarly carried out by allowing Protein A to capture the antibody solution, and performing three-minute HBS-EP+ injections successively for five times to allow reaction to take place, and then switching to HBS-EP+ to measure the dissociation phase for 15 minutes. After completion of the dissociation phase measurement, the sensor chip was washed with 25 mM NaOH and regenerated. A data analysis software exclusively for Biacore, Biacore T100 Evaluation Software Version 2.0.1, was used to perform kinetic analyses to calculate the association rate constant (kₐ), dissociation rate constant (kd), and the rate constant ratio from the obtained sensorgrams. To correct for the day-to-day differences in the measurement values, FIGS. 1 to 4 and Tables 16 and 19 show ratios based on taking the value of the control sample (cH-G1/cL-k) measured on the same day as 1.

T2 sequence (O14944 other isoform, or with tags, fused parts or gaps limits assumed): as the sequence (O14944 63-108 limits assumed) above, with S7N, F45Y counted along it

Binder | cEREG KD (nM)/hEREG KD (nM)
H111-G1d/L47-k (antibody, human IgG1, kappa, V domains shown) VH: QDQLVQSGAEVKKPGASVKVSCKASGFNIKDTYIQWVRQAPGQGLEWMGRIDPLRGNTKYREKFEGRVTITADTSTNTAYMELSSLRSEDTAVYYCVRSGTLFDFWGQGTLVTVSS VL: DIQMTQSPSSLSASVGDRVTITCKASQDIHKYIAWYQQKPGQAPRLLIQYTSTLQPGVPSRFSGSGSGTDYTFTISSLQPEDIATYYCLQYDRLRTFGGGTKVEIKR | 12.6 ratio
H116-G1d/LB-k (antibody, human IgG1, kappa, V domains shown) VH: QDQLVQSGAEVKKPGASVKVSCKASGFNIKDTYIQWVRQAPGQGLEWMGRIDPLRRNTKYREKFEGRVTITADTSTNTAYMELSSLRSEDTAVYYCVRSGTLFDFWGQGTLVTVSS VL: DIQMTQSPSSLSASVGDRVTITCKASQDIHKYIAWYQQKPGQAPRLLIQYTSTLQPGVPSRFSGSGSGTDYTFTISSLQPEDIATYYCLQYDNLRTFGGGTKVEIKR | 6.1 ratio
H120-G1d/LB-k (antibody, human IgG1, kappa, V domains shown) VH: QDQLVQSGAEVKKPGASVKVSCKASGFNIKDTYIQWVRQAPGQGLEWMGRIDPLRGNTKRREKFEGRVTITADTSTNTAYMELSSLRSEDTAVYYCVRSGTLFDFWGQGTLVTVSS VL: DIQMTQSPSSLSASVGDRVTITCKASQDIHKYIAWYQQKPGQAPRLLIQYTSTLQPGVPSRFSGSGSGTDYTFTISSLQPEDIATYYCLQYDNLRTFGGGTKVEIKR | 9.1 ratio
H111-G1d/L48-k (antibody, human IgG1, kappa, V domains shown) VH: QDQLVQSGAEVKKPGASVKVSCKASGFNIKDTYIQWVRQAPGQGLEWMGRIDPLRGNTKYREKFEGRVTITADTSTNTAYMELSSLRSEDTAVYYCVRSGTLFDFWGQGTLVTVSS VL: DIQMTQSPSSLSASVGDRVTITCKASQDIHKYIAWYQQKPGQAPRLLIQYTSTLQPGVPSRFSGSGSGTDYTFTISSLQPEDIATYYCLQYDNRRTFGGGTKVEIKR | 8.4 ratio

Next, values leading:

cEREG KD (nM)/hEREG KD (nM) | Binder
7.5 ratio | H118-G1d/LB-k (antibody, human IgG1, kappa, V domains shown) VH: QDQLVQSGAEVKKPGASVKVSCKASGFNIKDTYIQWVRQAPGQGLEWMGRIDPLRGNRKYREKFEGRVTITADTSTNTAYMELSSLRSEDTAVYYCVRSGTLFDFWGQGTLVTVSS VL: DIQMTQSPSSLSASVGDRVTITCKASQDIHKYIAWYQQKPGQAPRLLIQYTSTLQPGVPSRFSGSGSGTDYTFTISSLQPEDIATYYCLQYDNLRTFGGGTKVEIKR
9.8 ratio | H119-G1d/LB-k (antibody, human IgG1, kappa, V domains shown) VH: QDQLVQSGAEVKKPGASVKVSCKASGFNIKDTYIQWVRQAPGQGLEWMGRIDPLRGNTRYREKFEGRVTITADTSTNTAYMELSSLRSEDTAVYYCVRSGTLFDFWGQGTLVTVSS VL: DIQMTQSPSSLSASVGDRVTITCKASQDIHKYIAWYQQKPGQAPRLLIQYTSTLQPGVPSRFSGSGSGTDYTFTISSLQPEDIATYYCLQYDNLRTFGGGTKVEIKR
16 ratio | H112-G1d/LB-k (antibody, human IgG1, kappa, V domains shown) VH: QDQLVQSGAEVKKPGASVKVSCKASGFNIKDTYIQWVRQAPGQGLEWMGRRDPLRGNTKYREKFEGRVTITADTSTNTAYMELSSLRSEDTAVYYCVRSGTLFDFWGQGTLVTVSS VL: DIQMTQSPSSLSASVGDRVTITCKASQDIHKYIAWYQQKPGQAPRLLIQYTSTLQPGVPSRFSGSGSGTDYTFTISSLQPEDIATYYCLQYDNLRTFGGGTKVEIKR
7.9 ratio | H117-G1d/LB-k (antibody, human IgG1, kappa, V domains shown) VH: QDQLVQSGAEVKKPGASVKVSCKASGFNIKDTYIQWVRQAPGQGLEWMGRIDPLRGRTKYREKFEGRVTITADTSTNTAYMELSSLRSEDTAVYYCVRSGTLFDFWGQGTLVTVSS VL: DIQMTQSPSSLSASVGDRVTITCKASQDIHKYIAWYQQKPGQAPRLLIQYTSTLQPGVPSRFSGSGSGTDYTFTISSLQPEDIATYYCLQYDNLRTFGGGTKVEIKR
9 ratio | H111-G1d/LB-k (antibody, human IgG1, kappa, V domains shown) VH: QDQLVQSGAEVKKPGASVKVSCKASGFNIKDTYIQWVRQAPGQGLEWMGRIDPLRGNTKYREKFEGRVTITADTSTNTAYMELSSLRSEDTAVYYCVRSGTLFDFWGQGTLVTVSS VL: DIQMTQSPSSLSASVGDRVTITCKASQDIHKYIAWYQQKPGQAPRLLIQYTSTLQPGVPSRFSGSGSGTDYTFTISSLQPEDIATYYCLQYDNLRTFGGGTKVEIKR
